“And” between values parts separate entries of the source, which are not always exact repeats. Identical values can stand only once. Blank lines part the entries; values can stand above or below the substance they belong to.
Tests used:
[1] = target: human epidermal growth factor receptor 2 (HER2) (human) (UniProt P04626); experiment: dose-uptake, fluorometry of lysed cells, 37 °C, 4 hr; SK-BR-3 cells (HER2 overexpressed, negligible EGFR)
[2] = target: epidermal growth factor receptor (EGFR) (human) (UniProt P00533); experiment: flow cytometry (MFI) of DiD-labelled liposomes, 75 µM PL, 37 °C, 4 hr; MDA-468 cells (EGFR overexpressed, negligible HER2)
[3] = target: epidermal growth factor receptor (EGFR) (human) (UniProt P00533); experiment: dose-uptake, fluorometry of lysed cells, 37 °C, 4 hr; MDA-468 cells (EGFR overexpressed, negligible HER2); 10 cetuximab-Fab′ and 5 F5 scFv per liposome
[4] = target: epidermal growth factor receptor (EGFR) (human) (UniProt P00533); experiment: dose-uptake, fluorometry of lysed cells, 37 °C, 4 hr; MDA-468 cells (EGFR overexpressed, negligible HER2); 20 cetuximab-Fab′ and 5 F5 scFv per liposome
[5] = target: epidermal growth factor receptor (EGFR) (human) (UniProt P00533); experiment: dose-uptake, fluorometry of lysed cells, 37 °C, 4 hr; MDA-468 cells (EGFR overexpressed, negligible HER2); 10 cetuximab-Fab′ and 10 F5 scFv per liposome
[6] = target: epidermal growth factor receptor (EGFR) (human) (UniProt P00533); experiment: dose-uptake, fluorometry of lysed cells, 37 °C, 4 hr; MDA-468 cells (EGFR overexpressed, negligible HER2); 20 cetuximab-Fab′ and 10 F5 scFv per liposome
[7] = target: epidermal growth factor receptor (EGFR) (human) (UniProt P00533); experiment: dose-uptake, fluorometry of lysed cells, 37 °C, 4 hr; MDA-468 cells (EGFR overexpressed, negligible HER2); 20 cetuximab-Fab′ and 15 F5 scFv per liposome
[8] = target: human epidermal growth factor receptor 2 (HER2) (human) (UniProt P04626); experiment: dose-uptake, fluorometry of lysed cells, 37 °C, 4 hr; MKN-7 cells
[9] = target: human epidermal growth factor receptor 2 (HER2) (human) (UniProt P04626); experiment: dose-uptake, fluorometry of lysed cells; SK-BR-3 cells; 10 F5 scFv per liposome
[10] = target: human epidermal growth factor receptor 2 (HER2) (human) (UniProt P04626); experiment: dose-uptake, fluorometry of lysed cells; SK-BR-3 cells; 15 F5 scFv per liposome
[11] = target: human epidermal growth factor receptor 2 (HER2) (human) (UniProt P04626); experiment: dose-uptake, fluorometry of lysed cells, 37 °C, 4 hr; MKN-7 cells; 5 F5 scFv per liposome
[12] = target: human epidermal growth factor receptor 2 (HER2) (human) (UniProt P04626); experiment: dose-uptake, fluorometry of lysed cells, 37 °C, 4 hr; BT-474 cells; 5 F5 scFv per liposome
[13] = target: human epidermal growth factor receptor 2 (HER2) (human) (UniProt P04626); experiment: dose-uptake, fluorometry of lysed cells, 37 °C, 4 hr; MKN-7 cells; 10 F5 scFv per liposome
[14] = target: human epidermal growth factor receptor 2 (HER2) (human) (UniProt P04626); experiment: dose-uptake, fluorometry of lysed cells, 37 °C, 4 hr; MKN-7 cells; 15 F5 scFv per liposome
[15] = target: human epidermal growth factor receptor 2 (HER2) (human) (UniProt P04626); experiment: dose-uptake, fluorometry of lysed cells, 37 °C, 4 hr; BT-474 cells; 10 F5 scFv per liposome
[16] = target: human epidermal growth factor receptor 2 (HER2) (human) (UniProt P04626); experiment: dose-uptake, fluorometry of lysed cells, 37 °C, 4 hr; BT-474 cells; 15 F5 scFv per liposome
[17] = target: human epidermal growth factor receptor 2 (HER2) (human) (UniProt P04626); experiment: dose-uptake, fluorometry of lysed cells, 37 °C, 4 hr; SK-BR-3 cells; plateau at ˜200 µM PL
[18] = target: human epidermal growth factor receptor 2 (HER2) (human) (UniProt P04626); experiment: flow cytometry (MFI) of DiD-labelled liposomes, 75 µM PL, 37 °C, 4 hr; MKN-7 cells (moderate HER2 and EGFR)
[19] = target: human epidermal growth factor receptor 2 (HER2) (human) (UniProt P04626); experiment: flow cytometry (MFI) of DiD-labelled liposomes, 75 µM PL, 37 °C, 4 hr; BT-474 cells; mono-targeted counterpart with 5 F5 scFv per liposome
[20] = target: epidermal growth factor receptor (EGFR) (human) (UniProt P00533); experiment: dose-uptake, fluorometry of lysed cells, 37 °C, 4 hr; MDA-468 cells (EGFR overexpressed, negligible HER2); 5 F5 scFv per liposome; no significant uptake compared to non-targeted liposomes
[21] = target: epidermal growth factor receptor (EGFR) (human) (UniProt P00533); experiment: dose-uptake, fluorometry of lysed cells, 37 °C, 4 hr; MDA-468 cells (EGFR overexpressed, negligible HER2); 10 F5 scFv per liposome; no significant uptake compared to non-targeted liposomes
[22] = target: epidermal growth factor receptor (EGFR) (human) (UniProt P00533); experiment: dose-uptake, fluorometry of lysed cells, 37 °C, 4 hr; MDA-468 cells (EGFR overexpressed, negligible HER2); 15 F5 scFv per liposome; no significant uptake compared to non-targeted liposomes

F5 scFv per cell [1]: 2e+06 ligands/cell and 3e+06 ligands/cell
fold binding over non-targeted liposomes (NT) [2]: 500 fold
Anti-EGFR Lg/Cell Max (ligands per cell) [3]: 270000 ligands/cell
LS/Cell Max (liposomes per cell) (liposomes/cell) [3]: 27000
Anti-EGFR Lg/Cell Max (ligands per cell) [4]: 1.2e+06 ligands/cell
LS/Cell Max (liposomes per cell) (liposomes/cell) [4]: 61000
Anti-EGFR Lg/Cell Max (ligands per cell) [5]: 220000 ligands/cell
LS/Cell Max (liposomes per cell) (liposomes/cell) [5]: 22000
Anti-EGFR Lg/Cell Max (ligands per cell) [6]: 1.1e+06 ligands/cell
LS/Cell Max (liposomes per cell) (liposomes/cell) [6]: 53000
Anti-EGFR Lg/Cell Max (ligands per cell) [7]: 1.2e+06 ligands/cell
LS/Cell Max (liposomes per cell) (liposomes/cell) [7]: 59000
Substance: anti-HER2 and anti-EGFR dual-targeted immunoliposomes

liposomes per cell (liposomes/cell) [8]: < 20000
observed cellular uptake (liposomes per cell) (liposomes/cell) [9]: 230000
observed cellular uptake (liposomes per cell) (liposomes/cell) [10]: 230000
LS/Cell Max (liposomes per cell) (liposomes/cell) [11]: 8100
LS/Cell Max (liposomes per cell) (liposomes/cell) [12]: 40000
LS/Cell Max (liposomes per cell) (liposomes/cell) [13]: 4900
LS/Cell Max (liposomes per cell) (liposomes/cell) [14]: 4100
LS/Cell Max (liposomes per cell) (liposomes/cell) [15]: 72000
LS/Cell Max (liposomes per cell) (liposomes/cell) [16]: 68000
F5 scFv per cell at the plateau [17]: 3e+06 ligands/cell
liposomes per cell at the plateau (liposomes/cell) [17]: 200000 and 300000
fold binding over non-targeted liposomes (NT) [18]: 300 fold
fold binding over non-targeted liposomes (NT) [19]: 200 fold
LS/Cell Max (liposomes per cell) (liposomes/cell) [20]: 5300
LS/Cell Max (liposomes per cell) (liposomes/cell) [21]: 1100
LS/Cell Max (liposomes per cell) (liposomes/cell) [22]: 8000
Substance: anti-HER2 F5 scFv-conjugated immunoliposomes

From patent US20230310628A1, “Multi-Targeted Multi-Valent Ligand Drug Particles for the Treatment and Prevention of Diseases and Conditions” (priority 2017, published 2023)
